This is an account of results in the RNAGym collection of RNA variant scans (doi:10.1093/molbev/msab373).

B1: Azoarcus group I ribozyme (parent)
chain: GUGCCUUGCGCCGGGAAACCACGCAAGGGAUGGUGUCAAAUUCGGCGAAACCUAAGCGCCCGCCCGGGCGUAUGGCAACGCCGAGCCAAGCUUCGGCGCCUGCGCCGAUGAAGGUGUAGAGACUAGACGGCACCCACCUAAGGCAAACGCUAUGGUGAAGGCAUAGUCCAGGGAGUGGCGAAAGUCACACAAACCGG

Variants of B1 are the subject of this series. Description: reverse-splicing fitness (ratio to wild type); higher = more active; in vitro selection; Mg2+ level not given. The method in brief:
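An in vitro group I ribozyme library with randomized positions was T7-transcribed and gel-purified. In triplicate, 10 pmol RNA in EPPS pH 7.5 was reacted with 50 pmoles of a 30-nt RNA substrate for 1 h at 37 °C across several added MgCl2 levels (1–48 mM), then stopped with EDTA. Products were reverse transcribed from a substrate-complementary primer, PCR-amplified and sequenced (HiSeq 4000). Fitness is a variant's read proportion after selection over that before, normalised to wild type.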
For C82A A120G A145G C150G C169A, the reverse-splicing fitness amounted to 0.01.
As for C82A A120G A145G C150G C169G, the reverse-splicing fitness came to 0.00916.
As for C82A A120G A145G C150G C169U, the figure is 0.0106; as for C82A A120G C150A C169G U176G, 0.00524; as for C82A A120G C150A C169G U176C, 0.0267.
On to C82A A120G C150A C169G U176A, for which the reverse-splicing fitness amounted to 0.0195.
With C82A A120G A145G C150G C169A U176A, the reverse-splicing fitness came out at 0.0138.
As for C82A A120G A145G C150G C169A U176G, the reverse-splicing fitness is 0.00858.
For the variant C82A A120G A145G C150G C169A U176C, the reverse-splicing fitness is 0.0128.
With C82A A120G A145U C150A C169G, the reverse-splicing fitness was determined as 0.00799.
As for C82A A120G A145U C150A C169A, the figure is 0.00876.
To C82A A120G A145U C150A C169U belongs 0.0066; to C82A A120G A145G C150G, 0.00892.
To C82A A120G A145G C150A belongs 0.0101; to C82A A120G A145G C150U, 0.0203.
Take C82A A120G C150A C169A U176C: the reverse-splicing fitness is 0.0216.
Take C82A A120G C150A C169A U176G: the reverse-splicing fitness is 0.00586.
Regarding C82A A120G C150A C169A U176A, the reverse-splicing fitness was found to be 0.0184.
As for C82A A120G A145G C150U C169A, the figure is 0.0179; as for C82A A120G A145G C150U C169U, 0.016.
As for C82A A120G A145G C150U C169G, the figure is 0.0197; as for C82A A120G A145G C150U C169A U176G, 0.00535; as for C82A A120G A145G C150U C169A U176C, 0.0196.
As for C82A A120G A145G C150U C169A U176A, the figure is 0.016; as for C82A A120G A145U C150A C169U U176A, 0.0207.
In the case of C82A A120G A145U C150A C169U U176C, the reverse-splicing fitness stood at 0.0164.
For C82A A120G A145U C150A C169U U176G, the reverse-splicing fitness stood at 0.00431.
To C82A A120G A145G C150G C169G U176C belongs 0.0124; to C82A A120G A145G C150G C169G U176A, 0.0097; to C82A A120G A145G C150G C169G U176G, 0.00587.
As for C82A A120G A145G C150A C169U, the figure is 0.00961.
To C82A A120G A145G C150A C169G belongs 0.0104; to C82A A120G A145G C150A C169A, 0.0112.
As to C82A A120G A145G C150U C169U U176C, the reverse-splicing fitness is 0.0172.
As to C82A A120G A145G C150U C169U U176G, the reverse-splicing fitness was 0.00463.
As for C82A A120G A145G C150U C169U U176A, the reverse-splicing fitness was 0.0182.
To C82A A120G A145U C150U C169G U176A belongs 0.0114; to C82A A120G A145U C150U C169G U176G, 0.00454; to C82A A120G A145U C150U C169G U176C, 0.0154.
To C82A A120G A145C C150U C169U U176C belongs 0.0106; to C82A A120G A145C C150U C169U U176A, 0.0197; to C82A A120G A145C C150U C169U U176G, 0.00407.
As for C82A A120G A145U C150A C169G U176G, the figure is 0.00358; as for C82A A120G A145U C150A C169G U176A, 0.0133.
As for C82A A120G A145U C150A C169G U176C, the reverse-splicing fitness worked out at 0.0154.
As for C82A A120G A145C C169G U176G, the figure is 0.00403; as for C82A A120G A145C C169G U176C, 0.0162; as for C82A A120G A145C C169G U176A, 0.0259.
On to C82A A120G A145G C150G U176G, for which the reverse-splicing fitness is 0.00572.
In the case of C82A A120G A145G C150G U176C, the reverse-splicing fitness worked out at 0.011.
For the variant C82A A120G A145G C150G U176A, the reverse-splicing fitness amounted to 0.00745.
As for C82A A120G A145G C150A U176A, the figure is 0.0108; as for C82A A120G A145G C150A U176G, 0.00779.
As for C82A A120G A145G C150A U176C, the figure is 0.0213; as for C82A A120G A145G U176A, 0.0143; as for C82A A120G A145G U176C, 0.021.
With C82A A120G A145G U176G, the reverse-splicing fitness came out at 0.00561.
To C82A A120G A145G C150G C169U U176C belongs 0.0123; to C82A A120G A145G C150G C169U U176A, 0.0129.
To C82A A120G A145G C150G C169U U176G belongs 0.00741; to C82A A120G A145C U176C, 0.0111.
To C82A A120G A145C U176G belongs 0.00396; to C82A A120G A145C U176A, 0.011.
Turning to C82A A120G A145U C150A C169A U176A, the reverse-splicing fitness came out at 0.0132.
To C82A A120G A145U C150A C169A U176G belongs 0.00386.
Consider C82A A120G A145U C150A C169A U176C, for which the reverse-splicing fitness was determined as 0.0115.
As for C82A A120G A145U C150G U176C, the reverse-splicing fitness amounted to 0.00721.
To C82A A120G A145U C150G U176G belongs 0.00365; to C82A A120G A145U C150G U176A, 0.00629.
As for C82A A120G C150A C169A, the figure is 0.011.
As for C82A A120G C150A C169U, the reverse-splicing fitness was found to be 0.0102.
In the case of C82A A120G C150A C169G, the reverse-splicing fitness came to 0.0102.
For the variant C82A A120G A145U C150G C169U U176A, the reverse-splicing fitness stood at 0.0124.
Regarding C82A A120G A145U C150G C169U U176C, the reverse-splicing fitness was found to be 0.0127.
To C82A A120G A145U C150G C169U U176G belongs 0.00511; to C82A A120G A145G C169G, 0.0223.
For the variant C82A A120G A145G C169A, the reverse-splicing fitness is 0.0151.
As for C82A A120G A145G C169U, the figure is 0.0148.
Turning to C82A A120G A145U U176G, the reverse-splicing fitness was found to be 0.00426.
To C82A A120G A145U U176A belongs 0.0131; to C82A A120G A145U U176C, 0.0146.
Consider C82A A120G A145G C150A C169G U176A, for which the reverse-splicing fitness stood at 0.018.
For C82A A120G A145G C150A C169G U176G, the reverse-splicing fitness came to 0.00523.
